Data on 4 molecules can be found in article PMC6850040 (Iubmb Life, 2019).

The target in series [1] is OxDC (Bacillus subtilis, UniProt O34714). The series can be described thus: oxalate decarboxylase activity, Michaelis-Menten fit. It is filed as biochemical. Conditions: pH 4.2; 140 mM NaCl; no o-phenylenediamine; potassium oxalate 0.1-250 mM.
In series [2] the target is T1, OxDC (Bacillus subtilis, UniProt O34714, S161D/E162S/N163S/S164N).
T1 construct: synthetic cDNA (GeneScript) in pET24a(+), thrombin site and C-terminal 6xHis; expressed in E. coli; two-step purification, untagged enzyme used; homohexamer 264 kDa, Mn-dependent
The series can be described thus: turbidity at […] nm, protection from aggregation. Type of series: binding. Conditions: 50 mM sodium glyoxylate; 16 mM Tris-HCl pH 7.2, 140 mM NaCl, 25 C; substrate analogue, active site (indirect evidence).

Substrate in series [3]: O=C(O)C(=O)O
The series is described as follows: purified protein. Conditions: pH 4.2, 140 mM NaCl, potassium oxalate 10-200 mM.

Series [4] deals with the molecule itself. The series is described as follows: dynamic light scattering; 0.5 mg/mL enzyme, 25°C, 52 mM sodium acetate pH 4.2, 140 mM NaCl; self-association (hexamer).

By Km is commonly meant the substrate concentration at which the rate is half of its maximum. On to `O=C(O)C(=O)O` [oxalate], for which the Km in series [1] was found to be 8 ± 0.8 mM.
`O=CC(=O)O` [sodium glyoxylate]: in series [2], the “turbidity at 600 nm, protection from aggregation” value was “We found that NaGlyox prevents aggregation”.

B1: OxDC‐DSSN (OxDC bearing the Ser161Asp, Glu162Ser, Asn163Ser, Ser164Asn mutations) (enzyme, Bacillus subtilis)
chain: MKKQNDIPQPIRGDKGATVKIPRNIERDRQNPDMLVPPETDHGTVSNMKFSFSDTHNRLEKGGYAREVTVRELPISENLASVNMRLKPGAIRELHWHKEAEWAYMIYGSARVTIVDEKGRSFIDDVGEGDLWYFPSGLPHSIQALEEGAEFLLVFDDGSFDSSNTFQLTDWLAHTPKEVIAANFGVTKEEISNLPGKEKYIFENQLPGSLKDDIVEGPNGEVPYPFTYRLLEQEPIESEGGKVYIADSTNFKVSKTIASALVTVEPGAMRELHWHPNTHEWQYYISGKARMTVFASDGHARTFNYQAGDVGYVPFAMGHYVENIGDEPLVFLEIFKDDHYADVSLNQWLAMLPETFVQAHLDLGKDFTDVLSKEKHPVVKKKCSK
notes: Oxalate decarboxylase (OxDC) of Bacillus subtilis with four substitutions in the lid; made by site-directed mutagenesis of pET24a-OxDC (thrombin cleavage site and 6xHis tag at the C-terminus); The PDB entries are of the wild-type parent; source: two-step purification giving untagged protein; not shown: His6, C-terminal, cleaved
By Vmax is commonly meant the top rate of the reaction or transport when substrate is in excess. What is called kcat is the maximal rate divided by the concentration of active sites. Broadly, the stoichiometry N is a count of units in the complex or per binding partner. On to B1, for which, in series [3], the Km was determined as 0.30 ± 0.07 mM, the maximal velocity (Vmax) is 2 µmol/min/mg and the catalytic constant (kcat) worked out at 1.4 s⁻¹. Moreover, the “stoichiometry N” value in series [4] was determined as 6.

B2: Oxalate decarboxylase (OxDC) from Bacillus subtilis, wild type (enzyme)
chain: MKKQNDIPQPIRGDKGATVKIPRNIERDRQNPDMLVPPETDHGTVSNMKFSFSDTHNRLEKGGYAREVTVRELPISENLASVNMRLKPGAIRELHWHKEAEWAYMIYGSARVTIVDEKGRSFIDDVGEGDLWYFPSGLPHSIQALEEGAEFLLVFDDGSFSENSTFQLTDWLAHTPKEVIAANFGVTKEEISNLPGKEKYIFENQLPGSLKDDIVEGPNGEVPYPFTYRLLEQEPIESEGGKVYIADSTNFKVSKTIASALVTVEPGAMRELHWHPNTHEWQYYISGKARMTVFASDGHARTFNYQAGDVGYVPFAMGHYVENIGDEPLVFLEIFKDDHYADVSLNQWLAMLPETFVQAHLDLGKDFTDVLSKEKHPVVKKKCSK
notes: Oxalate decarboxylase (OxDC) of Bacillus subtilis; cDNA with a thrombin cleavage site and a 6xHis tag at the C-terminus in pET24a(+); homohexamer of 264 kDa; Residues of the thrombin site may remain at the C-terminus after cleavage; Purification details are in the Supporting Information; also called wild‐type OxDC; source: two-step purification giving untagged protein; not shown: His6, …
As to B2, in series [4], the “stoichiometry N” value turned out to be 6.
